Measured values from patent publication US7511119B2, “PRAME peptide analogues” (MannKind Corporation, priority 2005, dated 2009).
Read-outs that look alike come from different tables or passages of the source. Square brackets hold non-standard residues; d marks the D form. Ends that are not written are not given here. Phg = N[C@H](C(=O)O)c1ccccc1; Nle = CCCC[C@H](N)C(=O)O; Orn = NCCC[C@H](N)C(=O)O; Nva = CCC[C@H](N)C(=O)O

Tests used:
HLA-A*0201 on T2 cells [1] = biological target: T1, HLA-A*0201 on T2 cells (human); assay: T2 cells, wild-type/analog half-maximal binding
T1 construct: whole, on cells; Class I MHC on the surface of T2 cells, detected with a fluorescent anti-A2 antibody; beta2-microglobulin is not mentioned for this assay; also called MHC class I (A2 allele)

HLA-A*0201 on T2 cells [2] = biological target: T1, HLA-A*0201 on T2 cells; assay: T2 cells, wild-type/analog half-maximal binding; remark: listed apart in the source
[3] = biological target: T2, HLA-A*0201 class I monomer of the iTopia Epitope Discovery System; assay: iTopia affinity assay
T2 construct: also called A0201 restricted MHC Class 1 molecules; MHC monomer

## FVSEK[Nva]FYV (also called FVSEK(Nva)FYV) [SSX2 41-49 (K41F, A42V, I46Nva)]
HLA-A*0201 on T2 cells [1]
  Relative affinity (1/RA): 2.4 1/RA

## FVSEKIFYV [SSX2 41-49 (K41F, A42V)]
HLA-A*0201 on T2 cells [2]
  Relative affinity (1/RA): 3.1 1/RA

## YMSEKIFYV [SSX2 41-49 (K41Y, A42M)]
HLA-A*0201 on T2 cells [2]
  Relative affinity (1/RA): 0.6 1/RA

## WMSEKIFYV [SSX2 41-49 (K41W, A42M)]
HLA-A*0201 on T2 cells [2]
  Relative affinity (1/RA): 2.9 1/RA

## FVSEKIFTV [SSX2 41-49 (K41F, A42V, Y48T)]
HLA-A*0201 on T2 cells [1]
  Relative affinity (1/RA): 3.8 1/RA

## YLSEKIFYV [SSX2 41-49 (K41Y, A42L)]
HLA-A*0201 on T2 cells [2]
  Relative affinity (1/RA): 1.2 1/RA

## WVSEKIFYV [SSX2 41-49 (K41W, A42V)]
HLA-A*0201 on T2 cells [2]
  Relative affinity (1/RA): 3 1/RA

## WLSEKIFYV [SSX2 41-49 (K41W, A42L)]
HLA-A*0201 on T2 cells [2]
  Relative affinity (1/RA): 3.3 1/RA

## FVSEKIFSV [SSX2 41-49 (K41F, A42V, Y48S)]
HLA-A*0201 on T2 cells [1]
  Relative affinity (1/RA): 3.9 1/RA

## FISEKIFYV [SSX2 41-49 (K41F, A42I)]
HLA-A*0201 on T2 cells [2]
  Relative affinity (1/RA): 2.7 1/RA

## FVS[Nle]KIFYV (also called FVS(Nle)KIFYV) [SSX2 41-49 (K41F, A42V, E44Nle)]
HLA-A*0201 on T2 cells [1]
  Relative affinity (1/RA): 1.1 1/RA

## FLLQHLIG[Nle] (the second is probably S425T L433Nle) [PRAME425-433 S425F L433Nle analog]
[3]
  fold reduction of ED50 against the native peptide: > 4 fold

## FMLQHLIG[Nle] [PRAME425-433 analog with Phe at P1, Met at P2 and Nle at PΩ]
[3]
  binding result: binds

## TMLQHLIG[Nle] [PRAME425-433 S425T L426M L433Nle analog]
[3]
  binding result: binds

## SILQHLIGL [PRAME425-433 analog with Ile at P2]
[3]
  fold reduction of affinity (ED50) against the native peptide: ≤ 3 fold

## FLLQHLIGL (also called Phe P1 analog; S425F) [PRAME425-433 analog with Phe at P1]
[3]
  fold difference of affinity (ED50) against the native peptide: ≤ 3 fold

## TLLQHLIGL [PRAME425-433 analog with Thr at P1]
[3]
  fold difference of affinity (ED50) against the native peptide: ≤ 3 fold

## YLLQHLIGL [PRAME425-433 analog with Tyr at P1]
[3]
  fold difference of affinity (ED50) against the native peptide: ≤ 3 fold

## FVSEKIFXV (P8 = Phe(4-F), 4-fluorophenylalanine, also called FVSEKIF(Phe-4F)V) [SSX2 41-49 (K41F, A42V, Y48(Phe-4F))]
HLA-A*0201 on T2 cells [1]
  Relative affinity (1/RA): 1.4 1/RA

## FVSEKIF[Phg]V (also called FVSEKIF(Phg)V) [SSX2 41-49 (K41F, A42V, Y48Phg)]
HLA-A*0201 on T2 cells [1]
  Relative affinity (1/RA): 2.5 1/RA

## S[Nva]LQHLIGL [PRAME425-433 analog with Nva at P2]
[3]
  fold reduction of affinity (ED50) against the native peptide: ≤ 3 fold

## FVS[Nva]KIFYV (also called FVS(Nva)KIFYV) [SSX2 41-49 (K41F, A42V, E44Nva)]
HLA-A*0201 on T2 cells [1]
  Relative affinity (1/RA): 3.9 1/RA

## XLLQHLIGL (P1 = Hse (homoserine)) [PRAME425-433 analog with Hse at P1]
[3]
  fold difference of affinity (ED50) against the native peptide: ≤ 3 fold

## [Orn]LLQHLIGL [PRAME425-433 analog with Orn at P1]
[3]
  fold difference of affinity (ED50) against the native peptide: ≤ 3 fold

## FVSEK[Nle]FYV (also called FVSEK(Nle)FYV) [SSX2 41-49 (K41F, A42V, I46Nle)]
HLA-A*0201 on T2 cells [1]
  Relative affinity (1/RA): 1.1 1/RA
